Laboratory results: patent US7785829 (Biogen, dated 2010)

Columns and labels:
[1] = target: His-AP-Sp35 fusion protein (His-tagged alkaline phosphatase fused to the extracellular domain of Sp35, a.a. 34-532) (human) (UniProt P05187); experiment: competition ELISA; AP-Sp35 pre-incubated with 100-fold excess of soluble sNgR344-Fc, immobilized sNgR344-Fc
[2] = target: T1, human NgR1 receptor expressed on COS7 cells (human, UniProt Q9BZR6 27-447); experiment: mutant AP-Sp35 construct tested for NgR1 binding
T1 construct: whole, on cells; also called Nogo receptor-1; nogo receptor-1
T1 sequence (looked up): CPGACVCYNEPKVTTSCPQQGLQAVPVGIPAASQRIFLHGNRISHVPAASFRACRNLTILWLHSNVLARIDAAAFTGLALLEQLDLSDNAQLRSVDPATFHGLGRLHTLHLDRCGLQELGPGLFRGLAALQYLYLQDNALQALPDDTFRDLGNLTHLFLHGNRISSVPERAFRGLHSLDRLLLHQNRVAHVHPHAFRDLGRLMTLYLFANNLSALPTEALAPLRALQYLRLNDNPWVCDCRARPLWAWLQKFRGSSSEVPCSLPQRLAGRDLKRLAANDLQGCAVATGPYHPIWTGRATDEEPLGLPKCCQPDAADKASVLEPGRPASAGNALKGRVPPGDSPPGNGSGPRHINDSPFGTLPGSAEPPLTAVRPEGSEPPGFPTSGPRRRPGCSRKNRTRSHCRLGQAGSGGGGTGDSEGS

[3] = target: T1, human NgR1 receptor expressed on COS7 …; experiment: AP-Sp35 titration on NgR1-transfected COS7 cells, AP activity with 4-nitrophenyl phosphate

B1: sNgR344-Fc (rat NgR1 peptide 35-344 fused to the rat IgG1) (Fc fusion, UniProt Q99M75 35-344, looked up, not shown: a dimerising Fc or GST)
chain: NEPKVTTSCPQQGLQAVPTGIPASSQRIFLHGNRISYVPAASFQSCRNLTILWLHSNALAGIDAAAFTGLTLLEQLDLSDNAQLRVVDPTTFRGLGHLHTLHLDRCGLQELGPGLFRGLAALQYLYLQDNNLQALPDNTFRDLGNLTHLFLHGNRIPSVPEHAFRGLHSLDRLLLHQNHVARVHPHAFRDLGRLMTLYLFANNLSMLPAEVLVPLRSLQYLRLNDNPWVCDCRARPLWAWLQKFRGSSSEVPCNLPQRLAGRDLKRLAASDLEGCAVASGPFRPFQTNQLTDEELLGLPKCCQPDAADKA
For B1, the percent competition of binding [1] was 80%.

B2: His-AP-Sp35 (34-532) with amino acid 456 mutated from arginine to glutamic acid and amino acid 458 from histidine to valine (other)
chain: TGCPPRCECSAQDRAVLCHRKRFVAVPEGIPTETRLLDLGKNRIKTLNQDEFASFPHLEELELNENIVSAVEPGAFNNLFNLRTLGLRSNRLKLIPLGVFTGLSNLTKLDISENKIVILLDYMFQDLYNLKSLEVGDNDLVYISHRAFSGLNSLEQLTLEKCNLTSIPTEALSHLHGLIVLRLRHLNINAIRDYSFKRLYRLKVLEISHWPYLDTMTPNCLYGLNLTSLSITHCNLTAVPYLAVRHLVYLRFLNLSYNPISTIEGSMLHELLRLQEIQLVGGQLAVVEPYAFRGLNYLRVLNVSGNQLTTLEESVFHSVGNLETLILDSNPLACDCRLLWVFRRRWRLNFNRQQPTCATPEFVQGKEFKDFPDVLLPNYFTCRRARIRDRKAQQVFVDEGHTVQFVCRADGDPPPAILWLSPEKVLVSAKSNGRLTVFPDGTLEVRYAQVQDNGTYLCIAANAGGNDSMPAHLHVRSYSPDWPHQPNKTFAFISNQPGE
notes: also called Sp35 construct in which residues R at 456 and H at 458 were changed into E and V; not shown: N-terminal His tag and alkaline phosphatase (AP) reporter of the His-AP vector, with any junction residues
B2 was tested, and the “fold drop in signal (against the unmutated construct)” value [2] was over 10 fold.

B3: His-AP-Sp35 fusion protein (His-tagged alkaline phosphatase fused to the extracellular domain of Sp35, a.a. 34-532) (other, human)
chain: IIPVEEENPDFWNREAAEALGAAKKLQPAQTAAKNLIIFLGDGMGVSTVTAARILKGQKKDKLGPEIPLAMDRFPYVALSKTYNVDKHVPDSGATATAYLCGVKGNFQTIGLSAAARFNQCNTTRGNEVISVMNRAKKAGKSVGVVTTTRVQHASPAGTYAHTVNRNWYSDADVPASARQEGCQDIATQLISNMDIDVILGGGRKYMFRMGTPDPEYPDDYSQGGTRLDGKNLVQEWLAKRQGARYVWNRTELMQASLDPSVTHLMGLFEPGDMKYEIHRDSTLDPSLMEMTEAALRLLSRNPRGFFLFVEGGRIDHGHHESRAYRALTETIMFDDAIERAGQLTSEEDTLSLVTADHSHVFSFGGYPLRGSSIFGLAPGKARDRKAYTVLLYGNGPGYVLKDGARPDVTESESGSPEYRQQSAVPLDEETHAGEDVAVFARGPQAHLVHGVQEQTFIAHVMAFAACLEPYTACDLAPPAGTTDAAHPGTGCPPRCECSAQDRAVLCHRKRFVAVPEGIPTETRLLDLGKNRIKTLNQDEFASFPHLEELELNENIVSAVEPGAFNNLFNLRTLGLRSNRLKLIPLGVFTGLSNLTKLDISENKIVILLDYMFQDLYNLKSLEVGDNDLVYISHRAFSGLNSLEQLTLEKCNLTSIPTEALSHLHGLIVLRLRHLNINAIRDYSFKRLYRLKVLEISHWPYLDTMTPNCLYGLNLTSLSITHCNLTAVPYLAVRHLVYLRFLNLSYNPISTIEGSMLHELLRLQEIQLVGGQLAVVEPYAFRGLNYLRVLNVSGNQLTTLEESVFHSVGNLETLILDSNPLACDCRLLWVFRRRWRLNFNRQQPTCATPEFVQGKEFKDFPDVLLPNYFTCRRARIRDRKAQQVFVDEGHTVQFVCRADGDPPPAILWLSPRKHLVSAKSNGRLTVFPDGTLEVRYAQVQDNGTYLCIAANAGGNDSMPAHLHVRSYSPDWPHQPNKTFAFISNQPGE
notes: Order His-AP-Sp35 as in the name; also called alkaline phosphatase-Sp35 conjugate; His-AP-Sp35 (34-532); not shown: His tag
B3 was tested, and the EC50 [3] was about 6 nM.
